# Results taken from patent US6437095 (Hoffmann-La Roche, dated 2002).
# Where no end group is shown, it is not given here.
# T1: polyionic peptide AlaCysLysLysLysLysLysLysLysLys (ACK8) (also: also used as mixed disulfide with glutathione on Cys (ACK8-SG))
# T1 construct: Synthetic peptide (Fmoc); also called ACK8-SG (mixed disulfide with glutathione)
# T1 peptide: ACKKKKKKKK
# Biological target: T1, polyionic peptide …
# Test: 20 µM ACE8 with the mixed disulfide ACK8-SG, 0 to 1 M NaCl, cation exchange chromatography
binder,measurement,value
ACEEEEEEEE (Synthetic peptide (Fmoc)) [polyionic peptide AlaCysGluGluGluGluGluGluGluGlu (ACE8)],binding result,binds
